Experimental data published in patent US20140056966A1, “CONJUGATE ANGIOSTATION OR ITS FRAGMENT, THE METHOD OF PRODUCING THE CONJUGATE AND USE THEREOF” (PROTGEN LTD., priority 2007, published 2014).
Read-outs that look alike come from different tables or passages of the source.

B1: K3: fragment of recombinant human plasminogen; angiostatin K3, SEQ ID NO:5 (protein, listed as Homo sapiens)
chain: CLKGTGENYRGNVAVTVSGHTCQHWSAQTPHTHNRTPENFPCKNLDENYCRNPDGKRAPWCHTTNSQVRWEYCKIPSC
B2: K1: fragment of recombinant human plasminogen; angiostatin K1, SEQ ID NO:3 (protein, listed as Homo sapiens)
chain: CKTGNGKNYRGTMSKTKNGITCQKWSSTSPHRPRFSPATHPSEGLEENYCRNPDNDPQGPWCYTTDPEKRYDYCDILEC
B3: K1-3: angiostatin fragment K1-3 (fragment of plasminogen), recombinant, sequence of SEQ ID NO.2, expressed in E. coli (protein, listed as Homo sapiens)
chain: MVYLSECKTGNGKNYRGTMSKTKNGITCQKWSSTSPHRPRFSPATHPSEGLEENYCRNPDNDPQGPWCYTTDPEKRYDYCDILECEEECMHCSGENYDGKISKTMSGLECQAWDSQSPHAHGYIPSKFPNKNLKKNYCRNPDRELRPWCFTTDPNKRWELCDIPRCTTPPPSSGPTYQCLKGTGENYRGNVAVTVSGHTCQHWSAQTPHTHNRTPENFPCKNLDENYCRNPDGKRAPWCHTTNSQVRWEYCKIPSCDSSP
B4: PEG-K1-3: K1-3 having the sequence of SEQ ID NO:2 modified with 20 kDa PEG at the N-terminal α-amino group (conjugate, listed as Homo sapiens)
chain: B3 chain
modifications: 20 kDa PEG at N-terminus
B5: K2: fragment of recombinant human plasminogen; angiostatin K2, SEQ ID NO:4 (protein, listed as Homo sapiens)
chain: CMHCSGENYDGKISKTMSGLECQAWDSQSPHAHGYIPSKFPNKNLKKNYCRNPDRELRPWCFTTDPNKRWELCDIPRC

Tests used:
[1] = test system: bovine capillary endothelial cell (BCE); details: cited from earlier work; for inhibition of BCE proliferation: fragments of recombinant human plasminogen
[2] = test system: human umbilical vein endothelial cell (HUVEC); assay: trans-well migration of HUVEC; type: cell-based; details: 8 hours
Procedure: The K1-3 used in this example has the sequence of SEQ ID NO.2. HUVECs (Protgen, Beijing) were cultured in the M199 medium (Hyclone) containing 20% fetal bovine serum (Hyclone) to exponential phase. After starved for 12 hours, cells were added into trans-well inserts (Millipore, USA) at the concentration of 10,000 cells per well for measurement of cell migration. Mediums for migration assay included M199 medium with 5% serum. For the treatment groups, K1-3 with or without modification were added to the cells at 0.004, 0.04, 0.4 and 4 μg/ml. After culturing for 8 hours at 37° C., the cells in the trans-well inserts were fixed with 1% glutaraldehyde (Beijing chemical plant, China). […] The migrated cell number was counted under microscope (Olympus). Cells in three different fields in one plate treatment were counted and then the inhibition rate was calculated. At the concentration of 0.04-4 μg/ml, the inhibitory effect of cell migration improves with the increase of protein concentration.

[3] = in vivo half-life of K1-3 with or without PEG modification in Wistar rat
Procedure: The K1-3 used in this example has the sequence of SEQ ID NO.2. The efficacy of tK1-3 with PEG coupled to its N-terminus was evaluated by measuring the in vivo half-life of K1-3 with or without PEG modification in Wistar rat (Vitalriver Experimental Animal Center), respectively. Two healthy Wistar rat (about 200 g) were injected intraveniously with K1-3 and K1-3 modified with PEG, respectively, at a dose of 4.5 mg/kg body weight. Blood samples were taken from eye sockets of the rats at 0, 5, 10, 30 minutes, 1, 2, 4, 8, 16, 24, 36, 48, 72, 96, 120 and 144 hours. Plasma was then collected and the concentration of K1-3 with or without PEG modification was measured by sandwich ELISA, respectively.

[4] = test system: human umbilical vein endothelial cell (HUVEC); type: cell-based; details: 16 hours
Procedure: The K1-3 used in this example has the sequence of SEQ ID NO.2. 2×10^5/ml HUVEC were inoculated in 12-well plates (Corning) and cultured in the M199 medium (Hyclone) containing 20% fetal bovine serum (Hyclone) to exponential phase. After starved for 12 hours, crossed wounds were created in each well. Suspending cells were washed away. Experimental groups were as follows: negative control (PBS), positive control (K1-3 at the concentration of 0.04, 0.4 and 4 μg/ml) and treatment group (K1-3 with PEG at the concentration of 0.04, 0.4 and 4 μg/ml). After culturing for 16 hours at 37° C., the amounts of migrated cells were detected. At the concentration of 0.04-4 μg/ml, the inhibitory effect of cell migration was improved with the increase of protein concentration.

[5] = test system: HeLa (human cervical cancer); assay: proliferation of tumor cells (HeLa), MTT; type: cell-based; details: 48 hours; for concentration showing the highest anti-proliferation effect on tumor cells: among 0.4, 4, 40 and 150 μg/ml
Procedure: K1-3 used in this example is the K1-3 having the sequence of SEQ ID NO.2. Specifically, HeLa (ATCC#CCL-2, USA) were added into 96-well plates at 20,000 cells per well, then cultured in the DMEM medium (Hyclone) containing 10% serum to exponential phase. After starving for 12 hours, cells were treated with different concentrations of modified or unmodified K1-3 for measurement of cell proliferation. Experimental groups were as follows: negative control group (PBS), positive control groups (0.4, 4, 40, and 150 μg/ml K1-3), and treatment group (0.4, 4, 40, and 150 μg/ml K1-3 with PEG coupled to its N-terminus). After culturing for 48 hours at 37° C., the cells in the plates were treated with MTT for 4 h at 37° C. Then DMSO was added, and the absorption was measured at 570 nm by microplate spectrophotometer.

B16 melanoma = assay: late-stage B16 melanoma mice tumor model; type: in vivo, C57B/L mice; details: subcutaneous, tumor weight day 11
Procedure: K1-3 used in this example is K1-3 having the sequence of SEQ ID NO.2. Experiments were performed to observe the in vivo inhibitory activity of K1-3 with PEG coupled to its N-terminus on late-stage B16 tumor. C57B/L mice of about 20 g were used in the experiment (Beijing Vital River Laboratory Animal Co. Ltd.). Mice were inoculated at back with B16 cells (ATCC#CRL-6475, USA), 1×10^6 cells per mouse. The mice were then randomly grouped after the tumor volume reaches 1 cm^3, 8 mice per group, including the negative control group (sodium acetate), the positive control group (K1-3, 4.5 mg/kg body weight, administered daily), three treatment groups (K1-3 with PEG coupled to its N-terminus, 1.5 mg/kg body weight, administered daily, or 4.5 mg/kg body weight, administered daily, every 3 days, every 6 days, or every 9 days, respectively). Administration was performed by subcutaneous injection and lasted for 10 days. The mice were sacrificed on day 11, the weight of tumor was measured, and the efficacy was evaluated by tumor inhibition rate.

[6] = test system: H22 hepatocellular carcinoma; assay: early-stage H22 hepatocellular carcinoma mice tumor model; type: in vivo, Balb/c mice; details: subcutaneous, 3 weeks, tumor weight day 22
Procedure: K1-3 used in this example is K1-3 having the sequence of SEQ ID NO.2. Experiments were performed to observe the in vive inhibitory activity of K1-3 with PEG coupled to its N-terminus on early-stage H22 tumor. Balb/c mice of about 20 g were used in the experiment (Beijing Vital River Laboratory Animal Co. Ltd.). Mice were inoculated at back with H22 cells, 1×10^6 cells per mouse. The mice were then randomly grouped after the tumor volume reaches 1 cm^3, 8 mice per group, including the negative control group (sodium acetate), the positive control group (K1-3, 4.5 mg/kg body weight, administered daily), three treatment groups (K1-3 with PEG coupled to its N-terminus, 1.5 mg/kg body weight, administered daily, or 4.5 mg/kg body weight, administered daily, twice per week, or weekly, respectively). The administration was performed by subcutaneous injection and lasted for 3 weeks. The mice were sacrificed on day 22, the weight of tumor was measured, and the efficacy was evaluated by tumor inhibition rate. […] Since the in vivo half life of K1-3 with PEG coupled to its N-terminus are longer than that of unmodified K1-3 of the same dosage, the biological activity K1-3 with PEG coupled to its N-terminus is higher than that of the unmodified K1-3 of the same concentration when administration intervals are extended.

NCI-H226 NSCLC xenograft = NCI-H226 NSCLC xenograft model, tumor burden; type: in vivo, Balb/c nu/nu mice; details: for T/C ratio: PEG-K1-3 4.5 mg/kg i.v., Taxol 20 mg/kg i.v.
Procedure: Female Balb/c nu/nu mice aged 6-8 weeks of about 18-20 g weight (institute of laboratory animal sciences, CAMS) were used in this experiment. Mice were subcutaneously inoculated on the right side with NCI-H226 cells (human pancreatic cancer cell line, derived from ATCC, ATCC number CRL-5826). When the tumor volume reached about 80-125 mm^3, the animals were divide into 3 groups randomly (6 per group). […] The body weight and tumor volume of the animals were measured twice a week. Sacrifice the animals on day 28, collect the tumors and take photographs.

[7] = Wistar rat, injected intravenously, 4.5 mg/kg body weight, plasma, sandwich ELISA
[8] = 4.5 mg/kg body weight daily, 10 days

| Molecule | inhibition of BCE proliferation [1] | inhibition rate on cells migration ([2]; 0.04 μg/ml) | inhibition rate on cells migration ([2]; 0.4 μg/ml) | inhibition rate on cells migration ([2]; 4 μg/ml) | half-life [3, 7] | inhibition rate on cells migration (wound healing) ([4]; 0.04 μg/ml) | inhibition rate on cells migration (wound healing) ([4]; 0.4 μg/ml) | inhibition rate on cells migration (wound healing) ([4]; 4 μg/ml) | concentration showing the highest anti-proliferation effect on tumor cells [5] | tumor inhibition rate (B16 melanoma; [8]) | tumor inhibition rate ([6]; 4.5 mg/kg body weight daily) | other results |
| --- | --- | --- | --- | --- | --- | --- | --- | --- | --- | --- | --- | --- |
| B1 | effectively inhibit | – | – | – | – | – | – | – | – | – | – | – |
| B2 | effectively inhibit | – | – | – | – | – | – | – | – | – | – | – |
| B3 | effectively inhibit | 43% | 68% | 76% | 12.2 h | 0% | 20% | 25% | 40 µg/mL | 45% | 51% | inhibitory effect on cell proliferation compared with angiostatin K1-4 [1]: significantly stronger |
| B4 | – | 58% | 65% | 69% | 81.5 h | 35% | 40% | 105% | 40 µg/mL | 60% | 60% | half-life ([3]; summary statement, refers to example 4): 81.5 h; inhibition of the tumor cell proliferation compared with unmodified K1-3 ([5]; 0.4-150 μg/ml): more potent than unmodified K1-3; tumor inhibition rate (B16 melanoma; 1.5 mg/kg body weight daily, 10 days): 28%; tumor inhibition rate (B16 melanoma; 4.5 mg/kg body weight every 3 days): 34%; tumor inhibition rate (B16 melanoma; 4.5 mg/kg body weight every 6 days): 25%; tumor inhibition rate (B16 melanoma; 4.5 mg/kg body weight every 9 days): 24%; tumor inhibition rate ([6]; 1.5 mg/kg body weight daily): 54%; tumor inhibition rate ([6]; 4.5 mg/kg body weight weekly): 50%; tumor burden compared with the control group (NCI-H226 NSCLC xenograft; 4.5 mg/kg i.v., p<0.05): significantly decreased; T/C ratio (NCI-H226 NSCLC xenograft; Day 4): 73%; T/C ratio (NCI-H226 NSCLC xenograft; Day 11): 63%; T/C ratio (NCI-H226 NSCLC xenograft; Day 18): 62%; T/C ratio (NCI-H226 NSCLC xenograft; Day 25): 66%; tumor inhibition rate (NCI-H226 NSCLC xenograft; tumor burden 21 days after treatment, vs control group, PEG-K1-3 4.5 mg/kg, Taxol 20 mg/kg): 17.18% |
| B5 | effectively inhibit | – | – | – | – | – | – | – | – | – | – | – |
